Measured values published in patent US20220135687A1 (NANJING LEGEND BIOTECH, published 2022).

What was measured:
[1] = target: T1, human PD-L1 expressed on CHO-K1 cells (Genscript, Cat #M00543) (human, UniProt Q9NZQ7 19-290); experiment: cell-based or functional assay
[2] = target: T1, human PD-L1 expressed on CHO-K1 cells …; experiment: FACS, CHO-K1/human PD-L1 cells
Protocol: (§1) PD-L1 stable cell line binding activity assessment of 12 mouse mAbs was carried out using FACS. CHO-K1 cells expressing human PD-L1 (Genscript, Cat #M00543) were dissociated from adherent culture flasks and mixed with varying concentrations of antibodies. The antibody and cells were incubated for 30 minutes at room temperature, washed three times with FACS buffer (PBS containing 1% BSA). PE-labeled goat anti-mouse IgG (minimal x-reactivity) secondary antibody (BioLegend, Cat #405307) was added and incubated at room temperature for 15 minutes. Cells were washed again with FACS buffer and analyzed by FACSCalibur (BD Bioscience, San Jose, Calif.) and Flowjo software. Data were analyzed with Prism 6 (GraphPad Software, San Diego, Calif.) using non-linear regression, and EC₅₀ values were calculated (FIGS. 2A-2L and Table 3).

[3] = target: T1, human PD-L1 expressed on CHO-K1 cells …; experiment: FACS competition vs biotin-PD-1-Fc on CHO-K1/human PD-L1 cells
Protocol: A series of diluted mouse mAbs (concentration starting from 900 nM, 3 fold dilution, 50 μl per well) were added afterwards. The mixture was incubated at 4° C. for 30 minutes, washed twice with wash buffer, followed by the addition of PEcy5/streptavidin (1 μg/ml, 150 μl/well). The plates were again incubated at 4° C. for 30 minutes before the cells in each well were analyzed by FACSCalibur (BD Bioscience, San Jose, Calif.) and Flowjo software.

[4] = target: T2, His-tagged PD-L1 ECD protein (ACROBiosystems) (human, UniProt Q9NZQ7 19-238); experiment: SPR, mAb captured via anti-Fc, PD-L1-His analyte
T2 construct: Bought protein; also called PD-L1-His; PD-L1/His; not shown: His tag
Protocol: Briefly, capturing antibody (anti-mouse Fc antibody for the affinity measurement of mouse mAbs, or anti-human Fc antibody for the affinity measurement of chimeric and humanized mAbs, GE healthcare) was immobilized on a Biacore™ CM5 chip to approximately 7,000 RU using EDC-activated amine coupling chemistry. Antibody of interest (5 μg/ml) was captured for 60 seconds onto the sensorchip surface. His-tagged PD-L1 ECD protein (ACROBiosystems) was flowed over the sensorchip surface at a series concentrations. Flow rate was 30 μl/min in all experiments. Association and dissociation phases were 5 and 15 min, respectively. The chip was regenerated using Glycine/HCl pH 1.5. Captured antibody and antigen were removed between each cycle using 50 mM HCl in order to ensure a fresh binding surface for each concentration of antigen. The resulting sensorgrams were fit globally using a 1:1 binding model in order to calculate on- and off-rates (ka and kd, respectively), as well as affinities (KD).

[5] = target: T1, human PD-L1 expressed on CHO-K1 cells …; experiment: FACS on CHO-K1 cells expressing human PD-L1, PE-labeled goat anti-mouse IgG secondary antibody
Protocol: as §1

T2 sequence (Q9NZQ7 19-238): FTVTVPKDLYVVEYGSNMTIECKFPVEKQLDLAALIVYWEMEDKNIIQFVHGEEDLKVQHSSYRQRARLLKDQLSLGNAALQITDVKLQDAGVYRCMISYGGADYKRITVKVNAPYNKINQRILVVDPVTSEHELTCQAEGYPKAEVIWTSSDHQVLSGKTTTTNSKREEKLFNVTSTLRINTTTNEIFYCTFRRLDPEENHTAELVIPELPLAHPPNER
T1 sequence (Q9NZQ7 19-290, one chain of several): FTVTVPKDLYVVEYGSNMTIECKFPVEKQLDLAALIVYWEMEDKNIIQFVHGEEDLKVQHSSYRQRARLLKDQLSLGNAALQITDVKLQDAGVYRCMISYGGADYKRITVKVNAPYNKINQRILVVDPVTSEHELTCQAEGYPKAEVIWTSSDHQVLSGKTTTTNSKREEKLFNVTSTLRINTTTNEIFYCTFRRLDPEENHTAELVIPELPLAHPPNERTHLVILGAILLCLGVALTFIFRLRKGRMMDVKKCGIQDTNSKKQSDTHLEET

Binder | EC50, PD-L1 cell-based luciferase reporter assay [1] [nM] | EC50 [2] [nM] | Top (best-fit value) [2] | IC50 [3] [nM] | Kd [4] [nM] | koff [4] [s⁻¹] | kon [4] [M⁻¹ s⁻¹] | EC50 (read off the curve) [5] [nM]
51F3D2G4 (antibody, V domains shown, Mouse mAb from hybridoma culture) VH: QVQLQQSGAELARPGASVRLSCKASGYIFTGYGISWVKQRTGQGLEWIGEIFPRTANTYFNEKFKGKATLTADKSSSTAYMELRSLTSEDSAVYFCARDYDPYYALDYWGQGTSVTVSS VL: DIVMTQSHKFMSTSVGDRVTITCKASQDVSTAVDWYQQKPGQSPKLLIYSASYRYTGVPDRFTGSGSGTAFTFTISSEQAEDLAVYYCQQHYSVPFTFGGGTKLEIK | 8.69 | 2.13 | 1720 | 1.23 | – | – | – | –
53C1F3D4 (antibody, V domains shown, Mouse mAb from hybridoma culture; also called mouse 53C1F3D4) VH: QVQLQQSGNELARPGASVRLSCKASGYIFTGYGITWVRQRPGQGLEWIGEIFPRRVNTYYSEKFKGRATLTADISSSTAYMELRSLTSEDSAVYFCARDYDPYFALDYWGQGTSVTVSS VL: DIVMTQSHKFMSTSVGDRVSITCKASQDVSTAVDWYQQKPGQSPKLLIYSASYRYTGVPDRFTGSGSGTAFTFTISGEQAEDLAVYYCQQHYSIPFTFGGGTKLEIK | 4.45 | 3.73 | 2020 | 1.27 | 0.61 | 0.00019 | 320000 | –
29A8H8C7 (antibody, V domains shown, Mouse mAb from hybridoma culture; also called mouse 29A8H8C7) VH: DVQLQGSGPGLVKPSQSLSLTCTVTGYSITSDFAWDWIRQFPGNKLEWMGHIRFSGTTSYNPSLKSRISITRDTSKNQFFLQLNSVTSEDTATYYCARSTLITKGFFDYWGQGTTLTVSS VL: DIVMTQSHKFMSTSVGGRVSITCKASQDVSPAVAWYQQKPGQSPKLLIYWASTRHTGVPDRFTGSGSGTDFTLTISSVQTEDLALYYCQQHYSTPWTFGGGTKLEIK | 3.61 | 3.06 | 2440 | 1.41 | 0.28 | 0.00017 | 620000 | –
18B7F4G8 (antibody, V domains shown, Mouse mAb from hybridoma culture) VH: DVQLQESGPDLVKPSQSLSLTCTVTGYSITSGYTWHWIRQFPGNKLEWMGYIHYSGSTKYNPSLKSRFSITRDTSKNQFFLQLNSMTAEDTATYYCARNSLFASWGHGTLVTVSA VL: DIVLTQSPASLAVSLGQRATISCRASESVDTYGDSFMHWFQQKPGQPPKLLIYRASNLESGIPARFSGSGSRTDFTLTINPVEADDVATYYCQQSNEAPYTFGGGTKLEIK | 2.27 | 0.62 | 399 | – | – | – | – | ~3
